Results taken from patent US6495314B1, “Process for characterizing proteins” (The Scripps Research Institute, priority 1995, dated 2002).
“Also recorded” adds a separate entry of the source. Like-named read-outs stand apart in the source and are kept apart here.

Experiments:
[1] = target: T1, C3G-derived synthetic peptide (Homo sapiens, UniProt Q13905); test: C3G-derived synthetic peptide affinity column binding with MALDI readout; conditions: Gly-[COS]-βAla analogue unit; 19-member array, residues 146-165 of c-Crk SH3 domain (Example 3)
T1 construct: made in house; host or cells: chemical synthesis on 4-methyl benzhydrylamine resin
Description: An affinity column carrying a synthetic C3G derived peptide was prepared by reaction of the cysteine side chain of Acetyl-CWAcp-[…].amide (SEQ NO ID NO 14) with an iodoacetylated agarose matrix. The linker Acetyl-CWAcp- was designed to combine a reactive sulfhydryl on the Cys sidechain with a spectroscopic tag in the Trp residue, and to introduce a flexible spacer region between the support and the peptide ligand in the form of ε-aminocaproic acid. The amount of peptide on the column, was determined as 5 μmol/mL of the swollen agarose matrix from the absorbance at 280 nm of the peptide solution before and after reaction with the column.
The column was then washed with 0.5 M NaCl buffer to remove nonspecific binding proteins from the column. Specifically bound protein analogues were then eluted with 1 M hydroxylamine bufffer. Amounts of eluted peptide were monitored by UV absorbance at 280 nm. This procedure was used for both the C3G peptide column and for the control column loaded with Ac-C-AcpYGGFL.amide. The hydroxylamine cleavage of the thioester bond results in the elution of peptide fragments corresponding to the proteins which were able to bind to the affinity column under these conditions. Specific binding was found only for the C3G peptide column.
The composition of the parent array of SH3 protein analogues, as well as the binding and non-binding fractions obtained from affinity chromatography was determined by chemical cleavage and MALDI MS. First, the parent array of folded protein analogues and the 0.5 M NaCl wash from the affinity chromatography of the array were cleaved separately with hydroxylamine. After a desalting step, MALDI mass spectra were obtained for the peptide fragments generated from the (parent) protein array, the salt wash (non-binding) and for the peptide fragments generated by the hydroxylamine elution of the specifically bound analogues (binding). Nine components were present in the array of protein analogues that was added to the C3G column as one mixture (FIG. 26A). […] Three protein analogues, however, were able to bind to the C3G peptide on the column and were eluted only after cleavage with hydroxylamine (FIG. 26C). One of the protein analogues can be identified in both the wash and elution spectra, indicating intermediate folding and/or binding properties for this analogue.
The C3G-derived synthetic peptide affinity column was prepared by adding 10 mg of lyophilized Ac-CWAcp[…].amide (SEQ ID NO 24) (Acp=ε-amino caproic acid) in 2 mL of 50 mM Tris, 5 mM EDTA, pH 8.0 buffer to Sulfolink™ resin (Pierce), equilibrated in the same buffer, for 1 hour while shaking. Unreacted iodoalkyl groups on the resin were then blocked by treatment with 50 mM cystamine, 50 mM Tris, 5 mM EDTA, pH 8.0 buffer for 1 hour. The loading of the column was determined by UV absorbance of the unreacted peptide solution and was approximately 5 μmol/mL. A similar procedure was used to attach the control peptide Ac-CAcpYGGFL.amide (SEQ ID NO 25) to the another batch of the Sulfolink™ support.
Lyophilized crude synthetic polypeptide corresponding to the cCrk SH3 domain (1.5 mg) and BSA (8.5 mg) were dissolved in 20 mM HEPES, 50 mM NaCl, pH 7.3 buffer (400 μL) and loaded on to a 1 mL C3G-derived synthetic peptide affinity column pre-equilibrated with the same buffer. The column was washed with 4 mL each of 50 mM NaCl, 100 mM NaCl, 200 mM NaCl, 300 mM NaCl, 400 mM NaCl, 500 mM NaCl and 1000 mM NaCl, 0.1 M phosphate, pH 7.0 buffer. The column was then washed with 1 M NH2OH 200 mM NH4CO3 pH 6.0 (4 mL) and finally eluted in 6M Gn.HCl 100 mM phosphate pH 6.5 (4 mL). Samples from all column fractions were monitored by absorbance at 280 nm and by HPLC.
Affinity chromatography of the arrays of protein analogues was carried out as follows. […]

C3G-peptide [2] = target: T2, C3G-peptide (Homo sapiens, UniProt Q13905); test: Binding of Crk-N to the C3G-peptide in solution; conditions: purified synthetic Crk-N
T2 construct: made in house; host or cells: chemical synthesis
Source text: FIG. 3 illustrates preliminary iterative signature analysis data on residues 156-165 of the peptide Crk-N. a) Represents a comparison of the elution profiles obtained for the protein family using a C3G-peptide agarose column and a Leucine-Enkephalin agarose column (control). […] Single letters refer to amino acid pairs substituted with the -Gly-SCH2CH2CO— marker. d) Comparison of the MALDI MS spectra of the ammonium acetate wash and the entire 9 component synthetic Crk-N family cleaved with ammonium acetate. In both cases the N-terminal peptide ladder is observed at a much higher intensity than the equimolar C-terminal peptide ladder.
The folded protein was structurally characterized by NMR and crystallization (The folded protein was characterized by two dimensional NOESY 1H NMR spectroscopy. In addition, the synthetic protein solution used for NMR analysis spontaneously formed crystals upon storage at 4° C. These crystals diffracted to >2.3 Å allowing for the solution by molecular replacement. Refinement of the structure is in progress). The resulting synthetic protein domain was then assayed for its affinity for two different proline-rich peptides. […] This change in solvent exposure leads to an increase in the fluorescence intensity of the tryptophan sidechain which can be monitored as a function of increasing ligand concentration (Feng et al. Science 1994.266, 1241-1245). […]

C3G-peptide [3] = target: T2, C3G-peptide; conditions: recombinant Crk-N; read-out: KD for binding the C3G-peptide in solution; cited from earlier work

Compound	binding to C3G peptide affinity column, active (binding) pool [1]	also measured
E^148E^149: c-Crk SH3 domain analogue, dipeptide E148E149 replaced by Gly-[COS]-βAla	displayed appreciable binding	–
L^151P^152: c-Crk SH3 domain analogue, dipeptide L151P152 replaced by Gly-[COS]-βAla	displayed appreciable binding	–
K^164P^165: c-Crk SH3 domain analogue, dipeptide K164P165 replaced by Gly-[COS]-βAla	displayed appreciable binding; also recorded: without significant loss of binding activity	–
R^162D^163: c-Crk SH3 domain analogue, dipeptide R162D163 replaced by Gly-[COS]-βAla	displayed appreciable binding; also recorded: without significant loss of binding activity	–
CC[C@H](C)[C@H](NC(=O)[C@H](CC(=O)O)NC(=O)CNC(=O)[C@H](CCCCN)NC(=O)[C@H](CCCCN)NC(=O)[C@H](Cc1ccccc1)NC(=O)[C@@H]1CCCN1C(=O)[C@H](CC(C)C)NC(=O)[C@H](CC(=O)O)NC(=O)[C@H](CCC(=O)O)NC(=O)[C@H](CCC(=O)O)NC(=O)[C@H](CC(=O)O)NC(=O)[C@H](CC(N)=O)NC(=O)CNC(=O)[C@H](CC(N)=O)NC(=O)[C@H](Cc1ccccc1)NC(=O)[C@H](CC(=O)O)NC(=O)[C@H](Cc1ccccc1)NC(=O)[C@H](CC(C)C)NC(=O)[C@H](C)NC(=O)[C@H](CCCNC(=N)N)NC(=O)[C@@H](NC(=O)[C@H](Cc1ccc(O)cc1)NC(=O)[C@H](CCC(=O)O)NC(=O)[C@H](C)N)C(C)C)C(=O)N[C@@H](CC(C)C)C(=O)N[C@@H](CCCNC(=N)N)C(=O)N[C@H](C(=O)N[C@@H](CCCNC(=N)N)C(=O)N[C@@H](CC(=O)O)C(=O)N[C@@H](CCCCN)C(=O)N1CCC[C@H]1C(=O)N[C@@H](CCC(=O)O)C(=O)N[C@@H](CCC(=O)O)C(=O)N[C@@H](CCC(N)=O)C(=O)N[C@@H](Cc1c[nH]c2ccccc12)C(=O)N[C@@H](Cc1c[nH]c2ccccc12)C(=O)N[C@@H](CC(N)=O)C(=O)N[C@@H](C)C(=O)N[C@@H](CCC(=O)O)C(=O)N[C@@H](CC(=O)O)C(=O)N[C@@H](CO)C(=O)N[C@@H](CCC(=O)O)C(=O)NCC(=O)N[C@@H](CCCCN)C(=O)N[C@@H](CCCNC(=N)N)C(=O)NCC(=O)N[C@@H](CCSC)C(=O)N[C@H](C(=O)N1CCC[C@H]1C(=O)N[C@H](C(=O)N1CCC[C@H]1C(=O)N[C@@H](Cc1ccc(O)cc1)C(=O)N[C@H](C(=O)N[C@@H](CCC(=O)O)C(=O)N[C@@H](CCCCN)C(=O)N[C@@H](Cc1ccc(O)cc1)C(=O)N[C@@H](CCCNC(=N)N)C(=O)O)C(C)C)C(C)C)[C@@H](C)CC)[C@@H](C)CC [synthetic Crk-N]	–	Kd (C3G-peptide [2]): 2300 nM
I^161R^162: c-Crk SH3 domain analogue, dipeptide I161R162 replaced by Gly-[COS]-βAla	displayed appreciable binding; also recorded: without significant loss of binding activity	–
D^163K^164: c-Crk SH3 domain analogue, dipeptide D163K164 replaced by Gly-[COS]-βAla	displayed appreciable binding; also recorded: without significant loss of binding activity	–
recombinant Crk-N: recombinantly derived cCrk SH3 domain reported by Wu et al. Structure 1995	–	Kd (C3G-peptide [3]): 1900 nM
N^146D^147: c-Crk SH3 domain analogue, dipeptide N146D147 replaced by Gly-[COS]-βAla	displayed appreciable binding	–
D^147E^148: c-Crk SH3 domain analogue, dipeptide D147E148 replaced by Gly-[COS]-βAla	displayed appreciable binding	–
